Data as given in the Human Domainome abundance scans (Beltran et al. 2025).
± gives the uncertainty stated by the source.

B1: SAM and SH3 domain-containing protein 1, residues 630 to 700; numbered along this chain, O94885 (parent)
chain: GRPPQPKSVEDLLDRINLKEHMPTFLFNGYEDLDTFKLLEEEDLDELNIRDPEHRAVLLTAVELLQEYDSN

Variants of: B1
Test: abundance fitness (aPCA) (normalised: wild type 0, dead -1); higher = more abundant; growth selection in yeast, the domain comes from the species named
Settings: Homo sapiens

Variant | abundance fitness
E42Y | -0.539 ± 0.056
E42S | 0.102 ± 0.034
E42L | -0.6 ± 0.045
G1V | -0.049 ± 0.051
G1T | 0.016 ± 0.087
G1H | -0.161 ± 0.12
F25W | -0.891 ± 0.088
F25K | -0.784 ± 0.071
F25C | -0.701 ± 0.08
F25V | -0.758 ± 0.063
F25G | -0.882 ± 0.076
F25N | -0.612 ± 0.072
L26A | -0.117 ± 0.04
L26C | -0.464 ± 0.073
L26E | -0.188 ± 0.05
L26H | -0.44 ± 0.066
L26M | -0.043 ± 0.045
L26V | 0.034 ± 0.037
A61N | -0.479 ± 0.066
A61W | -0.287 ± 0.064
A61Q | -0.036 ± 0.057
A61F | -0.759 ± 0.094
A61R | -0.904 ± 0.07
A61L | -0.997 ± 0.071

Variant | abundance fitness
A61T | -0.479 ± 0.055
A61V | -0.644 ± 0.063
E40Q | 0.222 ± 0.049
E40K | 0.347 ± 0.046
E40S | 0.252 ± 0.032
E40M | -0.246 ± 0.056
E40P | -0.914 ± 0.075
N28K | -0.426 ± 0.064
N28Y | -0.208 ± 0.048
N28R | -0.607 ± 0.049
N28C | -0.582 ± 0.065
N28T | -0.831 ± 0.069
N28Q | -0.644 ± 0.077
N28M | -0.687 ± 0.081
D51W | -0.862 ± 0.079
D11Y | -0.717 ± 0.067
D11K | -0.766 ± 0.088
D11S | -0.749 ± 0.052
D11I | -1.08 ± 0.11
D11Q | -0.319 ± 0.052
D11F | -0.925 ± 0.08
L44G | -0.819 ± 0.065
L44P | -0.764 ± 0.073
L44M | -0.702 ± 0.073

Variant | abundance fitness
Y68P | 0.015 ± 0.047
Y68C | 0.105 ± 0.051
Y68V | -0.038 ± 0.043
Y68R | 0.094 ± 0.038
Y68K | 0.054 ± 0.056
L38I | -0.76 ± 0.096
L38R | -0.041 ± 0.037
L38K | 0.117 ± 0.053
L38F | -0.234 ± 0.059
L38H | 0.029 ± 0.05
V9Y | -0.883 ± 0.087
V9T | -0.701 ± 0.056
V9A | -0.844 ± 0.073
V9R | -0.969 ± 0.084
P6T | -0.653 ± 0.072
P6C | -0.507 ± 0.071
P6K | -0.63 ± 0.1
P6Y | 0.128 ± 0.049
Q5T | -0.365 ± 0.057
Q5M | -0.033 ± 0.048
Q5C | 0.007 ± 0.064
R55P | -0.895 ± 0.087
R55I | -0.696 ± 0.078
R55G | -1.02 ± 0.086

Variant | abundance fitness
R55D | -0.77 ± 0.085
R55C | -0.888 ± 0.087
R55S | -0.731 ± 0.06
N48V | -1.21 ± 0.2
N48M | -0.516 ± 0.14
N48G | 0.197 ± 0.057
D43V | -0.456 ± 0.047
D43M | -0.594 ± 0.056
D43S | -0.359 ± 0.039
D43P | -0.939 ± 0.065
I16H | -0.278 ± 0.069
I16T | -0.589 ± 0.076
I16P | -0.994 ± 0.099
I16V | -0.199 ± 0.052
T60D | 0.245 ± 0.05
T60G | 0.071 ± 0.042
T60I | -0.927 ± 0.082
T60Y | -0.449 ± 0.053
T60E | 0.398 ± 0.052
T60N | 0.348 ± 0.038
T60C | -0.293 ± 0.049
V62P | -0.517 ± 0.062
V62Y | -0.82 ± 0.093
V62G | -0.524 ± 0.065

Variant | abundance fitness
V62Q | -0.769 ± 0.091
V57N | 0.15 ± 0.048
V57A | 0.394 ± 0.037
V57T | 0.232 ± 0.038
T24L | -0.367 ± 0.04
L12I | -0.328 ± 0.067
L12C | -0.654 ± 0.077
L12K | -0.99 ± 0.12
L12E | -0.768 ± 0.084
L12Y | -0.672 ± 0.087
I49N | -0.926 ± 0.076
I49P | -1 ± 0.08
I49H | -0.784 ± 0.068
L33E | -0.962 ± 0.14
L33P | -0.896 ± 0.095
L33S | -0.812 ± 0.066
N71V | 0.035 ± 0.053
N71M | -0.071 ± 0.072
Q66V | -0.587 ± 0.054
Q66I | -0.563 ± 0.054
Q66K | 0.267 ± 0.041
D14K | -0.273 ± 0.065
D14G | -0.218 ± 0.055
D14Q | -0.269 ± 0.07

Variant | abundance fitness
D14V | -0.287 ± 0.047
D14R | -0.434 ± 0.055
D14F | -0.734 ± 0.068
D14N | -0.131 ± 0.048
D14M | -0.34 ± 0.066
N17P | -1.08 ± 0.094
N17S | -0.279 ± 0.04
N17E | -0.333 ± 0.063
E20M | -0.212 ± 0.064
E20H | -0.484 ± 0.074
E20S | -0.332 ± 0.053
P52T | -0.437 ± 0.045
P52N | -0.569 ± 0.062
P52R | -0.499 ± 0.041
E53C | -0.23 ± 0.06
L64T | 0.166 ± 0.038
L64E | 0.483 ± 0.045
L64S | 0.31 ± 0.033
L64M | 0.193 ± 0.043
L64K | 0.264 ± 0.044
L64W | 0.148 ± 0.043
L64A | 0.343 ± 0.036
H54C | -0.678 ± 0.058
H54L | -0.849 ± 0.055

Variant | abundance fitness
H54F | -1.03 ± 0.085
H54W | -0.96 ± 0.09
H54Y | -0.857 ± 0.074
H54Q | 0.059 ± 0.048
H54V | -0.189 ± 0.037
H54D | -0.02 ± 0.044
H54M | -0.501 ± 0.064
H54E | 0.13 ± 0.052
F36M | -0.354 ± 0.063
F36C | -0.849 ± 0.087
F36R | -0.794 ± 0.058
F36G | -0.642 ± 0.064
F36V | -0.495 ± 0.051
F36H | -0.638 ± 0.081
F36I | -0.531 ± 0.069
K19L | 0.127 ± 0.031
K19W | -0.607 ± 0.072
K19Q | 0.002 ± 0.044
K19R | -0.032 ± 0.035
E63K | 0.244 ± 0.042
E63F | -0.866 ± 0.08
E63W | -0.751 ± 0.081
E63N | -0.066 ± 0.043
